In patent publication US20230398116A1, “Agent for reversing resistance to anticancer drugs” (Y'S AC CO., LTD., priority 2020, published 2023):

Test: Heterogeneous chronic GVHD model (NOG mice transplanted with human umbilical cord blood mononuclear cells)
Type: in vivo, mouse
Conditions: for lung histopathology (inflammatory cell infiltration, fibrogenesis, collagen): eight weeks after transplantation, H&E and Azan-Mallory staining, FIG. 60
Description: On day −1, NOG mice were irradiated with a sublethal dose (100 cGy). On day 0, 5×10^6 human umbilical cord blood mononuclear cells were transplanted from the tail vein of NOG mice. Survival of the mice was assessed daily and body weight was measured twice a week. In an antibody treatment experiment, the control human IgG or anti-human IL-26 monoclonal antibody (the mouse antibody m69-10 and the humanized antibody h69-10A) was administered from day +28 of transplantation when clinical signs/symptoms of mild GVHD began to appear. The antibody solution was adjusted to a concentration of 1 mg/mL with sterile PBS, and 200 μL (200 μg) of the antibody solution per mouse was intraperitoneally injected twice a week. On day +56 after transplantation, the mice were sacrificed, and the skin, lung, liver, and large intestine were collected.
NOG mice were dissected, and then the skin, lung, liver, and large intestine on the back were excised, fixed in 10% formalin solution (Wako) at room temperature, and embedded in paraffin. Thereafter, a section having a thickness of 5 μm was prepared and placed on a glass slide, and stained with hematoxylin and eosin (H&E). In addition, in order to confirm the proliferation of collagen fibers, Azan-Mallory staining was performed. Images of the optical microscope were taken with an Olympus BX41 microscope (OLYMPUS, Tokyo, Japan) connected with an Olympus digital camera DP25, and CellSens software was used.

[1] = 200 μg per mouse i.p. twice a week from day 28, data not shown

B1: 69-10: mouse anti-human IL-26 monoclonal antibody, clone 69-10, from deposited hybridoma (antibody, V domains shown)
VH: QVTLKESGPGILKPSQTLSLTCSFSGFSLSTSGMGVGWIRQPSGKGLEWLAHIWWDDDKYYNPSLKSQLTISKDTSRNQVFLKITSVDTADTATYYCVRGGITATHYYAMDYWGQGTSVTVSS
VL: DIQMTQSPASQSASLGESVTISCLASQTIGTWLSWYQQKPGKSPQLLIYAATSLADGVPSRFSGSGSGTKFSFKISSLQAEDFVSYYCQQLYSSPWTFGGGTKLEIK
In the case of B1, the body weight loss [1] is reported as “clearly reduced”, the “number of survival days” value [1] is reported as “significantly prolonged” and the “lung histopathology (inflammatory cell infiltration, fibrogenesis, collagen)” value is reported as “clearly reduced”. For the same molecule, the “lung histopathology (inflammatory cell infiltration, fibrogenesis, collagen)” value (listed as m69-10) was “suppression of inflammatory cell infiltration, reduction of fibrogenesis, and reduction of collagen deposition were remarkably observed” and the “hair disorder (appearance)” value (eighth week of transplantation) was “slightly suppressed”.
